Assay [1] addresses T1, human IL-13 (human, UniProt P35225). The experiment in a line: SPR, average.
Assay [2] deals with T1, human IL-13. As to the kind of experiment: SPR, 25C, average of 3 determinations. Background: In SPR one partner is held on a chip, and binding of the other changes the refractive index at the surface.

The source of these data is patent US9957320 (dated 2018).

T1 sequence (P35225 25-146): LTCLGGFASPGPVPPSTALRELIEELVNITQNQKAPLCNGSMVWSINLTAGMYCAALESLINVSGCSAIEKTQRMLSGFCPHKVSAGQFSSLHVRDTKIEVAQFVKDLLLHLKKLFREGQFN

B1: Ab652 Fab (antibody, V domains shown)
VH: QVTLKESGPVLVKPTETLTLTCTVSGFSLSNARMGVSWIRQPPGKALEWLAHIFSNDEKSYSTSLKSRLTISKDTSKSQVVLTMTNMDPVDTATYYCARIYFDYWGQGTLVTVS
VL: DIQMTQSPSSLSASVGDRVTITCLASEDISNYLAWYQQKPGKAPKLLIYHTSRLQDGVPSRFSGSGSGTDFTLTISSLQPEDFATYYCQQGYRFPLTFGGGTKVEIK
On to B1, for which the Kd (in general, the equilibrium constant for the complex coming apart) in the assay with human IL-13 [1] was determined as 0.0134 nM; with human IL-13 [2], 0.015 nM.
